Our source for the switch fluorescence ratio values is the supplement of paper PMC10126150.

± gives the standard deviation of the averaged measurements.
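Further: ATP exposure 15 min at 22 °C before imaging.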

The series deals with ATP. Kind of series: switch fluorescence ratio, 500 uM ATP over buffer (Cy3 cluster intensity, sum of 5 cycles each) (fold (ratio)); higher = stronger signal-on switching upon ATP binding; sequences stand for … in TCGTCGGCAGCGTCAGATGTGTATAAGAGACAGTTTTTTTTTTTTTTTTTTTTTTTTT…TC. The settings on record: aptamer strand: ATP DNA aptamer (quencher-CACCTGGGGGAGTATTGCGGAGGAAGG + anchor), 100 nM annealed; ATP concentration: 500 uM. The method in brief:
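Between each of five buffer/ATP cycles, the flow-cell was stripped with NaOH and re-annealed. Each cycle imaged Cy3-labelled switching-strand clusters, annealed to 100 nM quencher-labelled ATP aptamer on a modified Illumina MiSeq flow-cell, first in selection buffer and then after 15 min with 500 uM ATP at 22 °C. The fluorescence ratio is summed target-cycle over summed buffer-cycle Cy3 intensity per cluster, averaged per switch-domain sequence, with clusters outside 100-1000 RFU excluded.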
As for GACTCTACGG, the switch fluorescence ratio came to 1.05 ± 0.032.

TTGCAGGGT: the switch fluorescence ratio came out at 0.9804 ± 0.0019.

TCATGGCGTG: the switch fluorescence ratio was determined as 0.988 ± 0.011.

Consider TTTTTGGCAC, for which the switch fluorescence ratio stood at 0.982 ± 0.029.

Consider TGGGGGAAGG, for which the switch fluorescence ratio worked out at 1.03 ± 0.061.

For the sequence TCAAGGTATT, the switch fluorescence ratio was 1 ± 0.034.

In the case of CGTGGTATCA, the switch fluorescence ratio was found to be 0.982 ± 0.077.

Take TGCAGTTTGT: the switch fluorescence ratio stood at 0.9929 ± 0.0065.

On to CTCTGTGCTC, for which the switch fluorescence ratio was 1.35 ± 0.083.

For the sequence AAGGAGTCGG, the switch fluorescence ratio is 0.987 ± 0.044.

For the sequence CGCGATTTAA, the switch fluorescence ratio was 1.056 ± 0.0088.

In the case of CCAAGAGGGC, the switch fluorescence ratio is 1.04 ± 0.023.

Regarding AAGCCTTTAG, the switch fluorescence ratio came out at 0.974 ± 0.047.

As to GAATTGTTGT, the switch fluorescence ratio was found to be 1 ± 0.02.

On to TTTTTTGCTT, for which the switch fluorescence ratio was 0.989 ± 0.038.

Take ACGCGAGTAT: the switch fluorescence ratio was determined as 1.05 ± 0.019.

Consider GGACCGGACG, for which the switch fluorescence ratio stood at 1.106 ± 0.0093.

For TAGTAAGAGG, the switch fluorescence ratio worked out at 1 ± 0.013.

For TGTTTGCTGT, the switch fluorescence ratio is 1.03 ± 0.074.

In the case of CTGCGGGGAG, the switch fluorescence ratio was 1.03 ± 0.037.

In the case of CTGGGAGGTG, the switch fluorescence ratio came out at 1.03 ± 0.055.

As for TGTTGATGGT, the switch fluorescence ratio was determined as 0.976 ± 0.031.

For AGGGGTGGCG, the switch fluorescence ratio amounted to 1.02 ± 0.014.

On to GTGGAGGCGC, for which the switch fluorescence ratio worked out at 0.989 ± 0.023.

With CTTGTGGGGT, the switch fluorescence ratio was determined as 0.978 ± 0.021.

On to ATCAATATAG, for which the switch fluorescence ratio is 1.03 ± 0.018.

Consider ATGGATGGAG, for which the switch fluorescence ratio amounted to 0.99 ± 0.013.

On to GGGTACGGGG, for which the switch fluorescence ratio was determined as 1 ± 0.03.

Regarding CGGGGGTCTG, the switch fluorescence ratio came out at 1.01 ± 0.028.

As to CCTAGTGTTC, the switch fluorescence ratio amounted to 0.9801 ± 0.0083.

For TATTAGGGAC, the switch fluorescence ratio was 0.994 ± 0.032.

For TCGAACTCTT, the switch fluorescence ratio amounted to 1.03 ± 0.021.

For the sequence ATATTAAGGC, the switch fluorescence ratio is 0.983 ± 0.017.

As for TTGCAGGAGG, the switch fluorescence ratio is 1 ± 0.019.

Turning to AATAGGAGGC, the switch fluorescence ratio came to 1.05 ± 0.053.

As for TGAGATTGTG, the switch fluorescence ratio stood at 1.02 ± 0.037.

In the case of TTGAGCTAGT, the switch fluorescence ratio came to 1 ± 0.032.

As to GGTAATATAC, the switch fluorescence ratio came out at 1.057 ± 0.0076.

Regarding GGCCCGGACT, the switch fluorescence ratio amounted to 1.04 ± 0.013.

For the sequence AGGTAGTATT, the switch fluorescence ratio was found to be 1.04 ± 0.012.

As for GGTTTTGCTG, the switch fluorescence ratio came out at 1.05 ± 0.053.

Regarding ACGATCTGTT, the switch fluorescence ratio turned out to be 1.0155 ± 0.00017.

Take ATAATGTGCA: the switch fluorescence ratio is 1.024 ± 0.0071.

As to CTGGTCGGGC, the switch fluorescence ratio was determined as 0.982 ± 0.012.

On to GTGTATGTTG, for which the switch fluorescence ratio stood at 0.9976 ± 0.0067.

Take AATGGCATCG: the switch fluorescence ratio was determined as 1.02 ± 0.011.

Turning to CTATAGGGGG, the switch fluorescence ratio was 1.007 ± 0.01.

On to CAGCGGGGTG, for which the switch fluorescence ratio amounted to 1.11 ± 0.15.

On to ATGCGGCTG, for which the switch fluorescence ratio stood at 1.04 ± 0.11.

Take CAGGGAAAAC: the switch fluorescence ratio amounted to 1.03 ± 0.034.

On to CGCCATTGTT, for which the switch fluorescence ratio turned out to be 1.01 ± 0.011.

In the case of GGTTTAAATA, the switch fluorescence ratio was 1.003 ± 0.0092.

As to TTATAGGCGT, the switch fluorescence ratio stood at 1 ± 0.02.

Regarding GGAATTAGTG, the switch fluorescence ratio came out at 0.995 ± 0.025.

Take CCGGGACAGC: the switch fluorescence ratio turned out to be 1.17 ± 0.077.

On to GCTGGCTCTT, for which the switch fluorescence ratio was 1.01 ± 0.014.

On to GCGGCAGTCT, for which the switch fluorescence ratio is 1.03 ± 0.012.

TTGGACGGTT: the switch fluorescence ratio amounted to 1 ± 0.015.

In the case of CCAGCGTGGT, the switch fluorescence ratio came out at 1.1 ± 0.019.

AGTGAGTCCG: the switch fluorescence ratio was 0.996 ± 0.01.

Consider ATAGGTTCGG, for which the switch fluorescence ratio was 0.968 ± 0.021.

As for CAGTGACAGT, the switch fluorescence ratio was determined as 1.028 ± 0.0014.

ATAGGTGTGG: the switch fluorescence ratio came out at 1.02 ± 0.035.

For GCAGTTAAAC, the switch fluorescence ratio was 1.04 ± 0.045.

AAAATGGGGA: the switch fluorescence ratio turned out to be 1.02 ± 0.033.

Consider GCTAGTCTCA, for which the switch fluorescence ratio was determined as 1.01 ± 0.028.

Take GCTATTTTCG: the switch fluorescence ratio turned out to be 0.99 ± 0.023.

Regarding TCAGGTGGGG, the switch fluorescence ratio was 1.07 ± 0.046.

Regarding AATTCCTATG, the switch fluorescence ratio came out at 1.04 ± 0.05.

Consider CACGATTACT, for which the switch fluorescence ratio was 1.281 ± 0.0018.

Consider TTTTTGTCTG, for which the switch fluorescence ratio came to 0.9814 ± 0.0091.

Regarding AGTTTGGCTT, the switch fluorescence ratio came to 0.99 ± 0.011.

Take TGCTTGCGGA: the switch fluorescence ratio amounted to 1.02 ± 0.023.

Regarding ATGGCTGGCT, the switch fluorescence ratio is 1.04 ± 0.041.

For the sequence TGGTTGG, the switch fluorescence ratio came to 0.994 ± 0.0015.

In the case of GGAAACTTAG, the switch fluorescence ratio stood at 1.019 ± 0.0089.

For the sequence CAGGGACAAT, the switch fluorescence ratio came out at 1.04 ± 0.023.

Regarding AGTAGCGGGA, the switch fluorescence ratio was 1.02 ± 0.024.

Turning to AAAGTCATCT, the switch fluorescence ratio worked out at 0.995 ± 0.023.

For the sequence CGAAAAGAGG, the switch fluorescence ratio amounted to 1.1 ± 0.26.

Take GCACATAGGG: the switch fluorescence ratio was 1.02 ± 0.011.

On to TAGAGGACGA, for which the switch fluorescence ratio came to 1.04 ± 0.063.

For the sequence TGCGGGGGGA, the switch fluorescence ratio amounted to 1.03 ± 0.036.

In the case of TAAGGGTGCT, the switch fluorescence ratio was 1.039 ± 0.0037.

As to TCTGAGAGGG, the switch fluorescence ratio amounted to 1 ± 0.017.

As to AGTTGTTTCG, the switch fluorescence ratio is 1.016 ± 0.0023.

For the sequence TGATACTCTG, the switch fluorescence ratio was 1.03 ± 0.029.

As for ACCCAGGAGC, the switch fluorescence ratio was determined as 1.35 ± 0.12.

For GATGTGGTCT, the switch fluorescence ratio was 1.014 ± 0.0075.

Consider TTGGAATATT, for which the switch fluorescence ratio was 0.9812 ± 0.0027.

With CTTGTGAACG, the switch fluorescence ratio amounted to 0.993 ± 0.036.

On to AGAAGATGCT, for which the switch fluorescence ratio is 0.9797 ± 0.0088.

Regarding TCGCGTTCGG, the switch fluorescence ratio was determined as 1.02 ± 0.013.

Consider CCAGTTTCGG, for which the switch fluorescence ratio was 0.983 ± 0.049.

Take AATGTCGCTG: the switch fluorescence ratio amounted to 1.003 ± 0.0018.

Turning to AACACGAATT, the switch fluorescence ratio came to 0.998 ± 0.025.

For AAAGGTTTGG, the switch fluorescence ratio is 0.976 ± 0.035.

For CGTCGGAGTC, the switch fluorescence ratio turned out to be 1.04 ± 0.031.

As to TGGAATTTAA, the switch fluorescence ratio is 0.984 ± 0.017.

On to TTTTTAGATC, for which the switch fluorescence ratio amounted to 1.004 ± 0.0088.

For TGGGGGTT, the switch fluorescence ratio amounted to 0.997 ± 0.032.

As for TTTCGGAAAC, the switch fluorescence ratio is 1.1 ± 0.017.

As to CTGTCAAGAT, the switch fluorescence ratio came to 1.02 ± 0.024.

With GCCGGCAAAT, the switch fluorescence ratio is 0.995 ± 0.051.

Regarding ATTCCATTTG, the switch fluorescence ratio is 1.03 ± 0.05.

Consider GATAGCGCAG, for which the switch fluorescence ratio is 1.01 ± 0.063.

On to AAGCTGTAGC, for which the switch fluorescence ratio turned out to be 1.03 ± 0.048.

For the sequence GTTGTCAATG, the switch fluorescence ratio is 0.974 ± 0.021.

In the case of TTGTATTTGC, the switch fluorescence ratio is 0.976 ± 0.031.

Consider AAAGATTAGT, for which the switch fluorescence ratio came out at 0.9713 ± 0.0097.

As for GAATGTGGGC, the switch fluorescence ratio was found to be 0.955 ± 0.028.

In the case of TTCTTGGTCT, the switch fluorescence ratio came to 1.009 ± 0.0067.

Consider AACTGCTATC, for which the switch fluorescence ratio was 1.22 ± 0.036.

For GGTATGTGTG, the switch fluorescence ratio stood at 1.03 ± 0.024.

Take ACGGGGCTGT: the switch fluorescence ratio turned out to be 0.996 ± 0.017.

For CCTTTTGGCT, the switch fluorescence ratio is 0.964 ± 0.014.

As for GAGTTTAGTC, the switch fluorescence ratio turned out to be 1.01 ± 0.013.

For TTCTTTACAC, the switch fluorescence ratio stood at 1.039 ± 0.0025.

On to ACGGGTTTTG, for which the switch fluorescence ratio was determined as 1.03 ± 0.024.

Regarding AAATAAATAA, the switch fluorescence ratio amounted to 0.944 ± 0.011.
